The text below walks through data of patent US20220135690A1 (TWIST BIOSCIENCE, published 2022).

The target in experiment [1] is CXCR4 chemokine receptor (Pan troglodytes (Chimpanzee), UniProt P61072 1-352). In words: cell-based or functional assay.
Experiment [2] deals with T1, CXCR4 chemokine receptor (UniProt P61072 1-352).
T1 chain: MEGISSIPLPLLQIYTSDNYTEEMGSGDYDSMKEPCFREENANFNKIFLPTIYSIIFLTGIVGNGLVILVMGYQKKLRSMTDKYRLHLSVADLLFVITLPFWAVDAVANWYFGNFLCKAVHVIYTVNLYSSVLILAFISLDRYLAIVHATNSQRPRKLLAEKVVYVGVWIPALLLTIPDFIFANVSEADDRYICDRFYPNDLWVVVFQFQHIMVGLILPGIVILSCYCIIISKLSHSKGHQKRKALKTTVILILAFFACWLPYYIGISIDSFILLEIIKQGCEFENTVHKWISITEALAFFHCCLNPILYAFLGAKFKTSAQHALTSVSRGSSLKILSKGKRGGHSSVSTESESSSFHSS
In words: HTRF ligand competition. Background: In TR-FRET formats the signal depends on donor and acceptor labels being close together.

B1: CXCR4-81-6 (antibody, V domains shown)
VH: EVQLVESGGGLVQAGGSLRLSCAASGRTFSSYAMGWFRQAPGKEREFVAAISWSGGSTYYADSVKGRFTISADNAKNTVYLQMNSLKPEDTAVYYCAAARGYWRWRLGRRYDYWGQGTQVTVSS
VL: DIQMTQSPSSLSASVGDRVTITCRASQSVTTYLNWYQQKPGKAPKLLIYGSSNLQSGVPSRFSGSGSGTDFTLTISSLQPEDFATYYCQQGYSTPWTFGGGTKVEIKR
Usually IC50 stands for the concentration that inhibits the measured activity by half. A lower IC50 goes with higher potency. As for B1, in experiment [1], the “IC50 in cAMP assay” value worked out at 0.9 nM. The molecule also returned an IC50 in experiment [2] of 0.687 nM.
